Experimental data as given in patent EP4792886A2, “CNP PRODRUGS” (Ascendis Pharma Growth Disorders A/S, priority 2015, dated 2016).
Bridges are numbered along the chain shown (N, C = ends). Where no end group is shown, it is not given here. The star is where a group is joined. Hexanoyl(6-maleimido) = O=C1C=CC(=O)N1CCCCCC(=O)*

B1: permanent N-terminal CNP-38 PEG 5kDa conjugate 15e (peptide)
peptide: {PEG 5 kDa-Hexanoyl(6-maleimido)}-LQEHPNARKYKGANKKGLSKGCFGLKLDRIGSMSGLGC
modifications: disulfide 22-38
B2: permanent Lys26 CNP-38 PEG 5 kDa conjugate 19e (peptide)
peptide: LQEHPNARKYKGANKKGLSKGCFGLKLDRIGSMSGLGC
modifications: 5 kDa PEG stably attached at the side chain of Lys26 through a maleimido hexanoyl group; disulfide bridge between Cys22 and Cys38
B3: permanent Lys26 CNP-38 PEG4x10 kDa conjugate 12g (peptide)
peptide: B2 peptide
modifications: disulfide 22-38; not fully specified (residue 26)

Legend:
recombinant human NEP = recombinant human NEP (Homo sapiens, UniProt P08473); conditions: pH 7.4
Source text: Samples were taken at different time intervals. […] The resulting reaction products were assigned using HPLC-MS.

wild-type FVB male mice = experiment: Growth study in FVB mice after 5 weeks treatment, daily subcutaneous bolus injection or continuous subcutaneous infusion; format: in vivo; conditions: 50 nmol/kg/d, d 35
Protocol: This study was performed in order to test the effect of daily subcutaneous bolus injection vs. continuous subcutaneous infusion of CNP-38 on animal growth. 21- to 22-days-old wild-type FVB male mice (n = 9/group) were given 50 nmol/kg/d CNP-38 or vehicle (30 mM acetate pH 4 containing 5 % sucrose and 1 % benzylic alcohol) either by daily subcutaneous bolus injection or by continuous subcutaneous infusion in the scapular region over 35 days. Continuous infusion was applied by Alzet osmotic pumps model 1002 for week 1-2, followed by model 1004 for week 3-5. CNP-38 concentrations in the pumps were adjusted for the mean animal weight at study day 7 (pump model 1002) or study day 25 (pump model 1004). Growth was determined at d 35 by total body length measurement and X-ray measurements of the right femur and tibia.

[1] = target: T1, natriuretic-peptide receptor B (NPR-B) expressed endogenously on NIH-3T3 cells (Murine Embryo Fibroblast cell … (murine, UniProt Q6VVW5 17-1047)); experiment: cell-based or functional assay
T1 sequence (looked up): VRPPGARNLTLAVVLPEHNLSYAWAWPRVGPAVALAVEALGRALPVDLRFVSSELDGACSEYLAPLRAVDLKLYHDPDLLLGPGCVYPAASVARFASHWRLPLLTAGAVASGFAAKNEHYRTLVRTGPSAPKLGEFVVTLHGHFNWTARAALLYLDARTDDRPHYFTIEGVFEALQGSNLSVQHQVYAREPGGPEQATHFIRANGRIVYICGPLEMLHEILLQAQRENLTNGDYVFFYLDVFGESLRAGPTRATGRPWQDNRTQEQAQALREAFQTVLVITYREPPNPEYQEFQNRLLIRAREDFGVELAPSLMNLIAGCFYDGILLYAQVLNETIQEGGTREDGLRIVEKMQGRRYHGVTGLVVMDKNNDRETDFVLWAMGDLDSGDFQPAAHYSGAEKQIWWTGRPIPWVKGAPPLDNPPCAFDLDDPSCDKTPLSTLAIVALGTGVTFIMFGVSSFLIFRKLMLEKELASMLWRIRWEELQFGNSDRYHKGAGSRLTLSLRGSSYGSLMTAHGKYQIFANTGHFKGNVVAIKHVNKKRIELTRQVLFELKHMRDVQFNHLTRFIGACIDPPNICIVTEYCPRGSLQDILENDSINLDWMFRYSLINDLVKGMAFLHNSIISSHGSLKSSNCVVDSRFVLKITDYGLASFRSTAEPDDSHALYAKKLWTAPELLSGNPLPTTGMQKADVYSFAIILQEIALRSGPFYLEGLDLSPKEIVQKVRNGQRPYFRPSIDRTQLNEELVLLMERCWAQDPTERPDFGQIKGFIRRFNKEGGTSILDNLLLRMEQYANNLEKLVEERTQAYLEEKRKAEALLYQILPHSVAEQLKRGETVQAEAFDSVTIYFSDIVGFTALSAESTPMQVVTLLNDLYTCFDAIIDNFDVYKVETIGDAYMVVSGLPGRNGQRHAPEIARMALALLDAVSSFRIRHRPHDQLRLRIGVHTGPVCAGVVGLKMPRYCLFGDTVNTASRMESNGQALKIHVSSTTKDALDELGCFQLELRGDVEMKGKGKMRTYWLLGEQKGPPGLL

Sequence of recombinant human NEP (P08473 whole entry): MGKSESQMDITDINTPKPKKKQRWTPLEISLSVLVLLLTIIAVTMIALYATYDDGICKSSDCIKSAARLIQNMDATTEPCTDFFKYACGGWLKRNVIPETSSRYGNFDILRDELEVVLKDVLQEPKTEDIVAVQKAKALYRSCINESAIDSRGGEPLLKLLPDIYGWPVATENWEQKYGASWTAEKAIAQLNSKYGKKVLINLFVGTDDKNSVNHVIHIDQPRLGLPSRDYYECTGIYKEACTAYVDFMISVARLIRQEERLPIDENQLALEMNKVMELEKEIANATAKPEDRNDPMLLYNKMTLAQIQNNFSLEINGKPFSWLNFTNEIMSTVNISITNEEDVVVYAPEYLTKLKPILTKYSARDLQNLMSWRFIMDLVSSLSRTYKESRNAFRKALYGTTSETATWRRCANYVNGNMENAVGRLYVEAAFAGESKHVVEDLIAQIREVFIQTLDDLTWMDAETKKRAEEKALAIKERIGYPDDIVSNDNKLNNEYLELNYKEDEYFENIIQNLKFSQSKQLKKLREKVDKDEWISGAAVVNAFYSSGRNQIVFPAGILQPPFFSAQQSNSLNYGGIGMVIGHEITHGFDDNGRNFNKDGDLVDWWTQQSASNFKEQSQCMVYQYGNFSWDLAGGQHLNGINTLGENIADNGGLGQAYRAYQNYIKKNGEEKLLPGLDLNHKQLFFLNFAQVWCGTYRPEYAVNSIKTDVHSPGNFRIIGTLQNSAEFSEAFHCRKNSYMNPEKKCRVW

Row | Molecule | half life norm. (recombinant human NEP) [h] | total body lenght compared to vehicle treated animals (wild-type FVB male mice; continuous subcutaneous infusion) [%] | total body lenght compared to vehicle treated animals (wild-type FVB male mice; daily subcutaneous bolus injection) [%] | Residual Activity [%] (cGMP TR-FRET in NIH-3T3 cells, by EC50 against non-PEGylated CNP-38) [1]
1 | CNP-38: CNP-38 SEQ ID No:24, LQEHPNARKYKGANKKGLSKGCFGLKLDRIGSMSGLGC, obtained from CASLO ApS (disulfide 22-38) | 12.10 | 121.7 | 110.2 | 
2 | B1 |  |  |  | 14
3 | B2 |  |  |  | < 1
4 | B3 |  |  |  | < 1
